{"source": "paper PMC9409550", "about": "(PLoS ONE, 2022)", "binders": {"B1": {"name": "CDY14HL-Fc1 (Fc fusion)", "chain": "QSTIEEQAKTFLDMFNHKAEDLFYQSSLAAWNYNTNITEENVQNMNNAGDKWSAFLKEQSTFAQMYPLQEIQNPTVKLQLQALQQNGSSVLSEDKSKRLNTILNTMSTIYSTGKVCNPDNPQECLLLEPGLNEIMANSLDYNERLWAWESWRSEVGKQLRPLYEEYVVLKNEMARANHYEDYGDYWRGDYEVNGVDGYDYSRGQLIEDVEHTFEEIKPLYEHLHAYVRAKLMNAYPSYISPIGCLPAHLLGDMWGRFWTNLYSLTVPFGQKPNIDVTDAMVDQAWDAQRIFKEAEKFFVSVGLPNMTQGFWEYSMLTDPGNVQKAVCLPTAWDLGKGDFRILMCTKVTMDDFLTAHHEMGHIQYDMAYAAQPFLLRNGANEGFHEAVGEIMSLSAATPKHLKSIGLLSPDFQEDNETEINFLLKQALTIVGTLPFTYMLEKWRWMVFKGEIPKDQWMKKWWEMKREIVGVVEPVPHDETYCDPASLFHVSNDYSFIRYYTRTLYQFQFQEALCQAAKHEGPLHKCDISNSTEAGQKLFNMLRLGKSEPWTLALENVVGAKNMNVRPLLNYFEPLFTWLKDQNKNSFVGWSTDWSPYAD"}}, "assay_in_all_cases": "flow cytometry on cells", "conditions_in_all_cases": "one partner purified", "key": {"[1]": {"target": "SARS-CoV-2 Wuhan-Hu-1 RBD, yeast-displayed (SARS-CoV-2, UniProt P0DTC2 330-530)"}, "[2]": {"target": "LYRa11 RBD, yeast-displayed (bat sarbecovirus LYRa11)"}, "[3]": {"target": "Rs4048 RBD, yeast-displayed (bat sarbecovirus Rs4048)"}, "[4]": {"target": "Rs4231 RBD, yeast-displayed (bat sarbecovirus Rs4231)"}, "[5]": {"target": "Rs7327 RBD, yeast-displayed (bat sarbecovirus Rs7327)"}, "[6]": {"target": "RsSHC014 RBD, yeast-displayed (bat sarbecovirus RsSHC014, UniProt U5WLK5 318-517)"}, "[7]": {"target": "RaTG13 RBD, yeast-displayed (bat sarbecovirus RaTG13)"}, "[8]": {"target": "SARS-CoV-1 (Urbani) RBD, yeast-displayed (SARS-CoV-1 (Urbani))"}}}
{"binder": "B1", "values": [{"measurement": "Kd", "setting": "[1]", "result": 0.14, "unit": "nM"}, {"measurement": "Kd", "setting": "[2]", "result": 0.29, "unit": "nM"}, {"measurement": "Kd", "setting": "[3]", "result": 0.31, "unit": "nM"}, {"measurement": "Kd", "setting": "[4]", "result": 0.3, "unit": "nM"}, {"measurement": "Kd", "setting": "[5]", "result": 0.31, "unit": "nM"}, {"measurement": "Kd", "setting": "[6]", "result": 0.31, "unit": "nM"}, {"measurement": "Kd", "setting": "[7]", "result": 1.4, "unit": "nM"}, {"measurement": "Kd", "setting": "[8]", "result": 0.25, "unit": "nM"}]}
